Test results: patent publication US20230183354A1 (IMMIOS HOLDING B V, published 2023)
Where a chain is given by its changes, count along the chain named.

T1: CHO.K1-rhesusCD103/beta7
T1 construct: also called CHO.K1-rhCD103/rhBeta7; CHO-K1.rhCD103/rhBeta7
T1 alpha chain (rhesus integrin Alpha-E, CD103): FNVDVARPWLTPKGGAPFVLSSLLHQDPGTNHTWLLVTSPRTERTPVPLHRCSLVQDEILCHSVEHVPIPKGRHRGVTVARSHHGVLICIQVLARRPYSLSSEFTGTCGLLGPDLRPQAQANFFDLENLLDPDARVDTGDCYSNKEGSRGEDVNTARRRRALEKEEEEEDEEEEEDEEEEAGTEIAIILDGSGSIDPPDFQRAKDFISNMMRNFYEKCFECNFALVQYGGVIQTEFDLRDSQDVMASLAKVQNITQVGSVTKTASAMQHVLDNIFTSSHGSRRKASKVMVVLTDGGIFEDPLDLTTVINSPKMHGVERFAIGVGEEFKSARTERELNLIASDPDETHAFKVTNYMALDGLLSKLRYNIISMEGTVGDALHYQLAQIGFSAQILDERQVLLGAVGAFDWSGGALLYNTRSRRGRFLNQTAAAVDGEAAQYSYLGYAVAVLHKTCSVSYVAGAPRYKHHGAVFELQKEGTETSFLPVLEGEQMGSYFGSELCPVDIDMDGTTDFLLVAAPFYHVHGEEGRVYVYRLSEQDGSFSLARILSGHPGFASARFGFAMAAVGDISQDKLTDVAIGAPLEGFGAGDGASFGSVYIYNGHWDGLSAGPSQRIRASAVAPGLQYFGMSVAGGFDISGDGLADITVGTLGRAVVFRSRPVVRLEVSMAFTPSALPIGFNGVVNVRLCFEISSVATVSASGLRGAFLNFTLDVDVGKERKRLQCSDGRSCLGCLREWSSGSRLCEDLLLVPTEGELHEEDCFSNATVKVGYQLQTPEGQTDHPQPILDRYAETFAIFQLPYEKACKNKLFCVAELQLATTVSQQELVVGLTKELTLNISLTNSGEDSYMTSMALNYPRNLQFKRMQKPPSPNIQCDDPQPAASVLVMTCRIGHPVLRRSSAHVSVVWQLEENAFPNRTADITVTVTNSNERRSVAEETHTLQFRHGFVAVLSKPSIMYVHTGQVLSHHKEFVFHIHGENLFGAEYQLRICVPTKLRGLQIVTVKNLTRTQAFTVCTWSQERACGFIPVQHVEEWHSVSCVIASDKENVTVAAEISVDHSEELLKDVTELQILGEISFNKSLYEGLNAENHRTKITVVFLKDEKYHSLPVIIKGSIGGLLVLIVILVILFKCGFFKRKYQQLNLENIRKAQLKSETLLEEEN
T1 beta chain (rhesus integrin Beta-7): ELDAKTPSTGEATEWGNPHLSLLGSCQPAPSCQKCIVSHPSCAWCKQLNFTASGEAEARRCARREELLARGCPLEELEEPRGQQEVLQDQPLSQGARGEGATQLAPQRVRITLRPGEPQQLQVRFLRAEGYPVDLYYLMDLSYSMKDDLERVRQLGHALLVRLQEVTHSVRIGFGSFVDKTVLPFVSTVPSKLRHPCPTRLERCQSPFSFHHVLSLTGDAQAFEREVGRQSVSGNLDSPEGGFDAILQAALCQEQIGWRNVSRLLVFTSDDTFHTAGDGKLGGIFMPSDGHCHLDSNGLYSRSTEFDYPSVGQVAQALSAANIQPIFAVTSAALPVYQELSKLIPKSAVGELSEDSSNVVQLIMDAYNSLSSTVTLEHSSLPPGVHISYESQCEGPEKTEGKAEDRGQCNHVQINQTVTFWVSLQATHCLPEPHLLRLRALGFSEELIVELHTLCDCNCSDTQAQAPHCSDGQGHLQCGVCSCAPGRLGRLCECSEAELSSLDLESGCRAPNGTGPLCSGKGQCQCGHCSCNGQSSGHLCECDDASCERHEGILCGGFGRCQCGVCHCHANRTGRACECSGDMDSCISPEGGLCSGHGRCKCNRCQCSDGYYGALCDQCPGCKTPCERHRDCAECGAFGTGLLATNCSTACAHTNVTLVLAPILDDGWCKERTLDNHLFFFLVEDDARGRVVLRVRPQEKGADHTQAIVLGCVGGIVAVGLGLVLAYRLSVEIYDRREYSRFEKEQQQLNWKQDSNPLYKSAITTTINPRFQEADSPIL

B1: hCD103.07A (antibody, mouse IgG1, V domains shown)
VH: EVQLQESGPSLVKPSQTLSLTCSVTGDSITSGYWNWIRKFPGNKLEYMGYITYSGSTYYNPSLKSRISITRDTSKNQYYLQLNSVTTEDTATYYCARNYYGSSSMDYWGQGTSVTVSS
VL: DIVMTQSQKFMSTSVADRVSVTCKASQNVGSDVAWYQQKPGQSPKSLIYSASYRYSGVPDRFTGSGSGTDFTLTISNVQSEDLAEYFCQQYNSYPSTFGGGTKLEIK
notes: also called clone 07A
B2: hCD103.01A (antibody, V domains shown)
VH: B1 VH with A96T, N98H, S103D, S104A
VL: DIVMTQSHKFMSTSVGDRVSITCKASQDVSIAVAWYQQRPGQSPKLLIYSASYRYTGVPDRFTGSGSGTDFTFTISSVQAEDLAVYYCQQHYSTPWTFGGGTKLEIK
notes: Also tested labelled with AF647, conjugated with Df and labelled with 89Zr; these are written under this molecule; also called clone 01A; hCD103.01 mAb
B3: hCD103.06A (antibody, mouse IgG1, V domains shown)
VH: QVQLQQPGSELVRPGASVKLSCKASGYTFTSYWMHWVKQRHGQGLEWIGNIYPGSGSTNYDEKFKSKGTLTVDTSSSTAYMHLSSLTSEDSAVYYCTRGVYDNPYYFDYWGQGTTLTVSS
VL: DIQMTQSSSNLSVSLGGRVTITCKASDHINNWLAWYQQKPGNAPRVLISGATSLETGVPSRFSGSGSGKDYTLSITSLQTEDVATYYCQQYWSIPLTFGAGTKLELK
notes: also called clone 06A; hCD103.06 mAb
B4: hCD103.05A (antibody, mouse IgG1, V domains shown)
VH: EVQLQQSGPELEKPGASAKISCKASGYSFTGYNMNWVKQSNGKSLEWIGNIDPYYGGTSYNQKFKGKATLTVDKSSSTAYMQLKSLTSEDSAVYYCARSFYGYDAGSPYNYAMDYWGQGTPVTVSP
VL: DIVMTQSHKFMSTSVGDRVSITCKASQDVGTFVAWYQQKPGQSPKLLIYWASTRHTGVPDRFTGSGSGTDFTLTISNVQSEDLADYFCHQYSSYPYTFGGGTQLEIK
notes: Also tested labelled with AF647, conjugated with Df and labelled with 89Zr; these are written under this molecule; also called clone 05A; hCD103.05 mAb

target: T2, human CD103 (integrin Alpha-E) / human integrin Beta-7 heterodimer on cells (human, UniProt P38570 19-1179; P26010 20-798); assay: cell ELISA on CHO.K1-humanCD103/beta7 cells, abs 450-610
T2 construct: The same id is used for native CD103 on human CD103+CD8+ T cells (tumor digests, TGF-beta induced T cells); the assay field tells which cells; also called hCD103/hBeta7; CHO.K1-hCD103/hBeta7
T2 sequence (P38570 19-1179 limits assumed, chain 1 of 2): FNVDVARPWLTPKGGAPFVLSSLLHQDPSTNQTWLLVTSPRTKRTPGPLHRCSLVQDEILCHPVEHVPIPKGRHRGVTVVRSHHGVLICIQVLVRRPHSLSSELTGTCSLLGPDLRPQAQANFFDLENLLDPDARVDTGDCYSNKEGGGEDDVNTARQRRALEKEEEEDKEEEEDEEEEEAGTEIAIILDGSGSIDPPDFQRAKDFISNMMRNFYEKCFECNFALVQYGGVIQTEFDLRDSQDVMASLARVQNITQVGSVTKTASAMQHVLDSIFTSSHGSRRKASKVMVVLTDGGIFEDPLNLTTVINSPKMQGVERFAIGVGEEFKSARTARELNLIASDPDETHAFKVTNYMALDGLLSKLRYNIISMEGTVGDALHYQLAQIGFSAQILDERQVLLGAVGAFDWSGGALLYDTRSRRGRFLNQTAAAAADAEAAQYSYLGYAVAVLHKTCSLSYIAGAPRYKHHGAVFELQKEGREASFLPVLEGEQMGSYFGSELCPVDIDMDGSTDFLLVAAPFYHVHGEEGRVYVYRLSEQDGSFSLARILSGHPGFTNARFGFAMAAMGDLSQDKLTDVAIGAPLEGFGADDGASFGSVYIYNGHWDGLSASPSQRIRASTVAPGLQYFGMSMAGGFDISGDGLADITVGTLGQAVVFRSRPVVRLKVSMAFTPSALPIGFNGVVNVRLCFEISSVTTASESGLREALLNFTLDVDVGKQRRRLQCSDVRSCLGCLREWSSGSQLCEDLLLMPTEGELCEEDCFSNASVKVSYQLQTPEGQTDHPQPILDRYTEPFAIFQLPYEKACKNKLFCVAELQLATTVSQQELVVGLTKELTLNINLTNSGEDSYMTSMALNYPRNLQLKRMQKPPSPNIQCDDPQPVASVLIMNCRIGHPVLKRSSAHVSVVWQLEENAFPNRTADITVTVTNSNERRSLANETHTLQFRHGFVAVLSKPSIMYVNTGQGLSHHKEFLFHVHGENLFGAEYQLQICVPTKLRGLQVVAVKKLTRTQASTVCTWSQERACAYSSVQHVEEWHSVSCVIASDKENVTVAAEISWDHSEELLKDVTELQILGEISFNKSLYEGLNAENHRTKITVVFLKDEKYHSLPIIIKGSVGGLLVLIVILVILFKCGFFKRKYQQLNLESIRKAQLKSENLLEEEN
T2 sequence (P26010 20-798 limits assumed, chain 2 of 2): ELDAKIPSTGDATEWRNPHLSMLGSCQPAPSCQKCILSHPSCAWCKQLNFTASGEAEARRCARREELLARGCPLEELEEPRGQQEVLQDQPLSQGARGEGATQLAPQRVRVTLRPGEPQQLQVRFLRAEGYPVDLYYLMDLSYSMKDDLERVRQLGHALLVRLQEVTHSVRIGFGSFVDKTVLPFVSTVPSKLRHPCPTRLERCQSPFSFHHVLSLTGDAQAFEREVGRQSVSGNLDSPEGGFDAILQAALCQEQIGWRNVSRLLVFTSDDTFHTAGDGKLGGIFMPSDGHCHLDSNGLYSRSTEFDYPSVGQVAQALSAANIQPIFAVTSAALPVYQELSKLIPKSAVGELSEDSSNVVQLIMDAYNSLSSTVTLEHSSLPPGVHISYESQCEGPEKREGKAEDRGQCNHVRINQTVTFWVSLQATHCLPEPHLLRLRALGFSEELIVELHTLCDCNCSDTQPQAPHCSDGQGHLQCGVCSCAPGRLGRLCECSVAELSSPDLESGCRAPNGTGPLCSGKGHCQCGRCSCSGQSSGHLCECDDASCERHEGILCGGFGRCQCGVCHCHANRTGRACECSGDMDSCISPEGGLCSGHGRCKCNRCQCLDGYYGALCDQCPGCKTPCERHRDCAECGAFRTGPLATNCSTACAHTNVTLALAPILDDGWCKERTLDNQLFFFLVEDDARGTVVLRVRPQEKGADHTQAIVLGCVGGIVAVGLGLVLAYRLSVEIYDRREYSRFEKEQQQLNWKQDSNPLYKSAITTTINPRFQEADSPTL

Row | Binder | EC50 (read off the curve)
1 | B1 | ~0.01 µg/mL
2 | B2 | ~0.02 µg/mL
3 | B3 | ~0.04 µg/mL

target: T2, human CD103 (integrin Alpha-E) / human …; assay: flow cytometry competition on CD103+CD8+ T cells; pre-incubation with unlabeled 02A; table n=2
Procedure: (§1) Percentage binding of fluorescently labeled mAbs was determined using flow cytometry. Maximum binding was set at 100%.
(§2) Percentage binding of fluorescently labeled mAbs was determined using flow cytometry. Maximum binding was set at 100%

Row | Binder | % binding of the fluorescently labeled mAb (IgG pre-incubation = 100)
4 | B1 | 0.9%
5 | B2 | 3%
6 | B4 | 4.6%
7 | B3 | 103%

Target: T1, CHO.K1-rhesusCD103/beta7
Assay: cell ELISA on CHO.K1-rhesusCD103/beta7 cells, abs 450-610

Row | Binder | EC50 (read off the curve)
8 | B1 | ~0.02 µg/mL
9 | B2 | ~0.05 µg/mL
10 | B3 | ~0.05 µg/mL

target: T2, human CD103 (integrin Alpha-E) / human …; assay: flow cytometry competition on CD103+CD8+ T cells; pre-incubation with unlabeled MCA708 (f4); table n=1
Procedure: as §1, §2

Row | Binder | % binding of the fluorescently labeled mAb (IgG pre-incubation = 100)
11 | B1 | 92%
12 | B2 | 83.9%
13 | B4 | 94.6%
14 | B3 | 0.7%
